Entries after “also recorded” stand apart in the source; their conditions may differ.
How the values were obtained:
[1] = test system: pre-dendritic cells (pre-DC); test: CXCL8 accumulation in culture of human pre-dendritic cells; type: cell-based; details: 24 h, varying doses, two donors
From the text: Peripheral blood mononuclear cells (PBMC) were isolated from two healthy blood donors and from part of the cells, CD14^+ monocytes were isolated by positive selection using magnetic beads coated with an antibody against CD14. The purified CD14^+ monocytes were subsequently cultured for 5 days in the presence of IL-4 and granulocyte-macrophage colony stimulating factor (GM-CSF). These growth factors induce differentiation of monocytes into pre-dendritic cells (pre-DC) within this time frame. At this stage part of the pre-DC culture was stimulated with a mixture of IL-1β and TNF-α for another 2 days in culture, thus stimulating final maturation of the cells into plasmacytoid dendritic cells (DC).
Using this differentiation method, separate populations of PBMC, pre-DC and DC were generated and after washing of the cells to remove all previously used stimuli, cells were subsequently re-cultured in fresh medium and tested for their response to either poly I:C, stathmin or LPS. Accumulation of CXCL8 in the culture medium over a 24-h period was used as a measure for cellular activation.

TLR4 = target: T1, TLR4 (Homo sapiens, UniProt O00206+Q9Y6Y9); test: HEK293 transfectant cells, TLR4 activation; type: cell-based; details: at levels of at least 50 μg/mL
T1 construct: expressed in transfected cells; host or cells: HEK293
Protocol: Additional control experiments using murine astrocytes or transfected HEK293 cells were performed essentially as described previously by several other research groups.

TLR3 [2] = test: CXCL8 release by cultured human astrocytes (ELISA); type: cell-based
Protocol: Cos-7 cells (25,000 cells per well in 96-well plates) were transfected for 5 h with 768 pools of cDNA derived from human brain tumours (5 pooled tumours including meningioma, oligodendroglioma, astrocytoma grades II and IV, and medulloblastoma; NCI CGAP Brn35; Invitrogen) using lipofectamine, after which cells were thoroughly washed. Transfection with green-fluorescent protein-encoding cDNA was used as an internal control for transfection efficiencies. After continued culture of the transfected cells for 48 h, 75 μL of each culture supernatant was harvested and added to cultured human astrocytes seeded at 1,000 cells per well in 75 μL. After 48 h of culture, supernatants were harvested and evaluated for CXCL8 release using ELISA. Stimulation of astrocytes with poly I:C served as positive controls for CXCL8 release in all cases, non-transfected Cos 7 culture supernatants as negative controls.
(§1) Purified recombinant stathmin was exposed to two different conditions that differentially affect the extent of helix formation within the protein chain. One part of the protein preparation was exposed to 5% trifluoroacetic acid (TFA) in water for 1 h at 37° C., strongly acidic conditions that tend to disrupt an alpha helix. In parallel, another part was exposed for 1 h at 37° C. to 5% of the helix-promoting solvent trifluoroethanol (TFE) in phosphate-buffered saline (PBS). After exposure to these different conditions, both protein samples were extensively dialysed for 48 h against several changes of PBS. Next, the samples were analyzed by […] circular dichroism spectroscopy that allows calculation of helical content on the basis of elipticity in the absorption of circularly polarized light. In both cases, another part of the dialyzed sample was tested in parallel for induction of TLR3-mediated release of CXCL8 (IL-8) in human astrocytes as described elsewhere in this application.

human microglia = test: CXCL8 accumulation in cultures of human microglia (ELISA); type: cell-based; details: microglia from gray or white matter, 24 h
Protocol: Using either gray matter samples or white matter samples of post mortem adult human brains collected within 9 h after death, several cultures of microglia were produced as previously described. Microglia were subsequently stimulated with different TLR agonists and after 24 h accumulation of CXCL8 in the culture medium was quantified using a commercial ELISA assay, as a measure of TLR-mediated activation.

[3] = test system: astrocytes from TLR3-deficient mice; test: IL-6 release by astrocytes from TLR3-deficient mice (ELISA); type: cell-based; details: TLR3-deficient mouse astrocytes, 48 h
Protocol: (§2) Astrocytes were cultured in poly L-lysine coated 96 well-flat-bottom plates at 1×10^4 cells per well in 100 l DMEM/HAM-F10 medium containing 10% FCS and antibiotic supplements for 24 h to obtain post-confluent cultures. Recombinant human stathmin was next added to astrocytes, and parallel control stimuli were performed with either poly I:C, an established TLR3 agonist, or ultrapure lipopolysaccharides, established TLR4 agonists. After addition of these stimuli astrocytes were incubated for another 48 h. Astrocyte culture supernatants were subsequently collected and using a commercial ELISA kit levels of IL-6 were determined, as a marker for TLR-mediated activation of murine astrocytes.

[4] = Circular dichroism spectroscopy, helical content; type: physicochemical; details: dissolved in 50% TFE in PBS, without dialysis
Protocol: as §1, with “[…] […]” for “In parallel, another part was exposed for 1 h at 37° C. to 5% of the helix-promoting solvent trifluoroethanol (TFE) in phosphate-buffered saline (PBS). After exposure to these different conditions, both protein samples were extensively dialysed for 48 h against several changes of PBS.”

TLR3 [5] = test: IL-6 release by astrocytes from wild-type mice (ELISA); type: cell-based; details: wild-type mouse astrocytes, 48 h
Protocol: as §2

T1 sequence (O00206 24-839, species assumed): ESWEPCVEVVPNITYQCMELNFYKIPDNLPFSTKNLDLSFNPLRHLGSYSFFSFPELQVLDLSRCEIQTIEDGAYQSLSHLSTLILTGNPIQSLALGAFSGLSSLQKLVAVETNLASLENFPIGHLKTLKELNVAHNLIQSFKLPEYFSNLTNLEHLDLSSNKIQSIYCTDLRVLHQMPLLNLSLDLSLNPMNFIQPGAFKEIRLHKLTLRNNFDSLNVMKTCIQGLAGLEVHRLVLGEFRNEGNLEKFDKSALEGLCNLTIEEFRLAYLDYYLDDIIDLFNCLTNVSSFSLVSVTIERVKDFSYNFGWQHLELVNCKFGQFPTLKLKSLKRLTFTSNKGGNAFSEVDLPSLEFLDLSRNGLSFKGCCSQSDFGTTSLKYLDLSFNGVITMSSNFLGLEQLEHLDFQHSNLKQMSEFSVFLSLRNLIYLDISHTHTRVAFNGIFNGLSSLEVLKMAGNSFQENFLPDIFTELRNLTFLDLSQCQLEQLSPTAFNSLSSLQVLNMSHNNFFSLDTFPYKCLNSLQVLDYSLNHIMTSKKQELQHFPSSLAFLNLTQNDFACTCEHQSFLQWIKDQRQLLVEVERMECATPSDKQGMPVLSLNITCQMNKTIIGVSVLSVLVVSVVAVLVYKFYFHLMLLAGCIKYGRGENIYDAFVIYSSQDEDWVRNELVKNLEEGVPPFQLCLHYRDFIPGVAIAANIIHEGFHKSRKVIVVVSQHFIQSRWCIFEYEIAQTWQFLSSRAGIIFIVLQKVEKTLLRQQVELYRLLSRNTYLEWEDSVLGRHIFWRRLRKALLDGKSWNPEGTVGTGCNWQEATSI
T1 sequence (Q9Y6Y9 17-160 limits assumed, species assumed): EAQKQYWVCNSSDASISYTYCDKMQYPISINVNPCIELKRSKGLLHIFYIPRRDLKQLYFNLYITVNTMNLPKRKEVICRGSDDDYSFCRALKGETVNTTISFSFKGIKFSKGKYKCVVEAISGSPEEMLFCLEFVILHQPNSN

B1: stathmin: cytosolic phosphoprotein of 149 amino acids (SEQ ID NO: 1); purified recombinant human stathmin from a commercial source (protein)
chain: MASSDIQVKELEKRASGQAFELILSPRSKESVPEFPLSPPKKKDFSLEEIQKKLEAAEERRKSHEAEVLKQLAEKREHEKEVLQKAIEENNNFSKMAEEKITHKMEANKENREAQMAAKLERLREKDKHIEEVRKNKESKDPADETEAD
modifications: Human; (44)..(138) Stathmin-like alpha helix domain
notes: purified recombinant human stathmin from a commercial source
CXCL8 accumulation in the culture medium [1]: substantial increase in CXCL8 accumulation
response of HEK293 transfectant cells via TLR4 (TLR4): does not contain any endotoxin contaminants that trigger responses
astrocyte CXCL8 response, dose dependence (TLR3 [2]; at 100 μg/mL): still not maximal
CXCL8 release by cultured human astrocytes (in words) (TLR3 [2]; doses between 5 and 100 μg/mL, four donors): marked CXCL8 release
stathmin-induced response under TLR3-directed small interfering RNA (TLR3 [2]; human astrocytes, three TLR3 siRNAs): largely—in one case completely—inhibited
CXCL8 accumulation in the culture medium (human microglia): enhanced CXCL8 accumulation
IL-6 release [3]: completely absent; also recorded: fully abrogated
helical content [4]: 98%
IL-6 release (TLR3 [5]): dose-dependent IL-6 induction; also recorded: marked IL-6 release

— patent publication US20090253622A1, “USE OF TLR3 AGONISTS FOR THE TREATMENT OF NEURODEGENERATIVE DISORDERS” (Nederlandse Organisatie voor toegepast - …, priority 2006, published 2009)
